B1: G-CSFR(Ig-CRH)E design 134 (R41E_R141E_R167D), purified, tag cleaved (receptor)
chain: GSMGCGHISVSAPIVHLGDPITASCIIKQNCSHLDPEPQILWELGAELQPGGRQQRLSDGTQESIITLPHLNHTQAFLSCSLNWGNSLQILDQVELRAGYPPAIPHNLSCLMNLTTSSLICQWEPGPETHLPTSFTLKSFKSEGNCQTQGDSILDCVPKDGQSHCSIPDKHLLLYQNMGIWVQAENALGTSMSPQLCLDPMDVVKLEPPMLRTMDPSPEAAPPQAGCLQLSWEPWQPGLHINQKCELRHKPQRGEASWALVGPLPLEALQYELCGLLPATAYTLQIRCIRWPLPGHWSDWSPSLELRTTE
notes: also called Design 134 G-CSFR(Ig-CRH)E; design 137 G-CSFR(Ig-CRH)E

Columns and labels:
[1] = biological target: T1, G-CSFR(Ig-CRH)E design 9, purified, tag cleaved (human, UniProt Q99062 26-331); test: SPR (Biacore T200), G-CSFR(Ig-CRH)E amine-coupled, G-CSFE injected; KD relative to WT:WT control (larger = weaker)
T1 construct: SPR protein; also called Design 9 G-CSFR(Ig-CRH)E
T1 chain: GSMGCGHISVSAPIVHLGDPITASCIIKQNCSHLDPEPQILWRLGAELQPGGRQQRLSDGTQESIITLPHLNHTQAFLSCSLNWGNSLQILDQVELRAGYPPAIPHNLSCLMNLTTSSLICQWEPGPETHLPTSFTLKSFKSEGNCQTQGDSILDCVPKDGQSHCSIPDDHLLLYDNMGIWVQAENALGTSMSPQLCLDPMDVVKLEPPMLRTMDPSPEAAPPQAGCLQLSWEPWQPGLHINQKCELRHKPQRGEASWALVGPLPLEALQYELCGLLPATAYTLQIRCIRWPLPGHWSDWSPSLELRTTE
Description: (§1) The SPR binding assays were carried out on a Biacore T200 instrument (GE Healthcare, Mississauga, ON, Canada) with PBS-T (PBS+0.05% (v/v) Tween 20) running buffer at a temperature of 25° C. CMS Series S sensor chip, Biacore amine coupling kit (NHS, EDC and 1 M ethanolamine), and 10 mM sodium acetate buffers were all purchased from GE Healthcare. PBS running buffer with 0.05% Tween20 (PBS-T) was purchased from Teknova Inc. (Hollister, CA).
(§2) To determine binding affinity of G-CSFE to G-CSFRE the G-CSFRE mutant was captured by standard amine coupling as described by the manufacturer (GE LifeSciences). Briefly, immediately after EDC/NHS activation, a 5 μg/mL solution of G-CSFRE in 10 mM NaOAc, pH 5.0, was injected at a flow rate of 5 μL/min until a receptor density of ˜700-900 RU was reached. The remaining active groups were quenched by a 420 s injection of 1 M ethanolamine hydrochloride-NaOH pH 8.5 at 10 μL/min. Using single-cycle kinetics, six concentrations of a two-fold dilution series of the corresponding G-CSFE mutant starting at 200 nM with a blank buffer control were sequentially injected at 25 μL/min for 300s with a 1800s dissociation phase, resulting in a set of sensorgrams with a buffer blank reference. The same sample titration was also performed on a reference cell with no variants captured. The chip was regenerated to prepare for the next injection cycle by one pulse of 10 mM glycine/HCl, pH 2.0, for 30 s at 30 μL/min.
(§3) Double-referenced sensorgrams from duplicate or triplicate repeat injections were analyzed using Biacore™ T200 Evaluation Software v3.0 and fit to the 1:1 Langmuir binding model.

[2] = biological target: T2, WT G-CSFR(Ig-CRH), purified, tag cleaved (human, UniProt Q99062 26-331); test: SPR (Biacore T200), WT G-CSFR(Ig-CRH) amine-coupled, G-CSFE injected; KD relative to WT:WT control (larger = weaker)
T2 construct: also called G-CSFRWT; wild type G-CSFR ECD
T2 chain: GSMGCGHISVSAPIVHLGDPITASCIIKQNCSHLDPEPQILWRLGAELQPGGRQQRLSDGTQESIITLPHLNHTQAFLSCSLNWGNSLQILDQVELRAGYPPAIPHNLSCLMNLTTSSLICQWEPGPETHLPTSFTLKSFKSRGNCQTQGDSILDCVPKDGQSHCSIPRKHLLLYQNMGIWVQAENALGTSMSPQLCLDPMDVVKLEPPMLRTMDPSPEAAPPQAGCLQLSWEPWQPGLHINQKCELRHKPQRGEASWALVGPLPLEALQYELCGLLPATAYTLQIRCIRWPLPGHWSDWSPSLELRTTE

[3] = biological target: T2, WT G-CSFR(Ig-CRH), purified, tag cleaved; test: SPR (Biacore T200)
[4] = biological target: T3, WT G-CSF, purified, tag cleaved (human, UniProt P09919 31-206); test: SPR (Biacore T200)
T3 construct: also called G-CSFWT
T3 sequence: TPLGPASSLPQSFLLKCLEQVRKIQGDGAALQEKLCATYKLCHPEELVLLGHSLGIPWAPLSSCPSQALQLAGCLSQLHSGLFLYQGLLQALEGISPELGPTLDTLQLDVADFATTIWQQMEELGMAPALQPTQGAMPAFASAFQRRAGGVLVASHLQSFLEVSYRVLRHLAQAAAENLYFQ

[5] = biological target: B1; test: SPR (Biacore T200), G-CSFR(Ig-CRH)E amine-coupled, G-CSFE injected; KD relative to WT:WT control (larger = weaker)
Description: as §1, §2, §3

[6] = biological target: T4, G-CSFR(Ig-CRH)E design 30, purified, tag cleaved (human, UniProt Q99062 26-331); test: as above
T4 construct: also called Design 30 G-CSFR(Ig-CRH)E
T4 chain: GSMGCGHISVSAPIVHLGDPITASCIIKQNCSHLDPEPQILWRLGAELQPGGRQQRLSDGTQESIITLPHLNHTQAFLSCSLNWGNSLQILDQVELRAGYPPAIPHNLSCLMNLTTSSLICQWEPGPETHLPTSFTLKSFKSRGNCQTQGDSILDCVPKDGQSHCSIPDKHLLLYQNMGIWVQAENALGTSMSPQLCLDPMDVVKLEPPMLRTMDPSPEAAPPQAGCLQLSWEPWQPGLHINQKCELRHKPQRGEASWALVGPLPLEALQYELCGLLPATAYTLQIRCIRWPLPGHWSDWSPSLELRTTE
Description: as §1, §2, §3

Binder | KD fold change (vs WT:WT) [2] [fold] | binding result [4] | also measured
G-CSFE design 9, purified, tag cleaved (ligand, also called Design 9 G-CSFE) TPLGPASSLPQSFLLKCLEQVRKIQGDGAALQEKLCATYKLCHPEELVLLGHSLGIPWAPLSSCPSQALQLAGCLSQLHSGLFLYQGLLQALEGISPELGPTLRTLQKDVARFATTIWRQMKELGMAPALQPTQGAMPAFASAFQRRAGGVLVASHLQSFLEVSYRVLRHLAQAAAENLYFQ | 79 | – | KD fold change (vs WT:WT) [1]: 1.2 fold; fold weaker KD (vs WT:WT) [3]: ≥ 20 fold
G-CSFR(Ig-CRH)E design 300, purified, tag cleaved (receptor, SPR protein; also called Design 300 G-CSFR(Ig-CRH)E) GSMGCGHISVSAPIVHLGDPITASCIIKQNCSHLDPEPQILWRLGAELQPGGRQQRLSDGTQESIITLPHLNHTQAKLSCSLNWGNSLQILDKVELRAGYPPAIPHNLSCLMNLTTSSLICQWEPGPETHLPTSFTLKSFKSRGNCQTQGDSILDCVPKDGQSHCSIPDKHLLLYQNMGIWVQAENALGTSMSPQLCLDPMDVVKLEPPMLRTMDPSPEAAPPQAGCLQLSWEPWQPGLHINQKCELRHKPQRGEASWALVGPLPLEALQYELCGLLPATAYTLQIRCIRWPLPGHWSDWSPSLELRTTE | – | no binding | –
G-CSFE design 134, purified, tag cleaved (ligand, also called Design #134 G-CSFE) TPLGPASSLPQSFLLKCLEQVRKIQGDGAALQEKLCATYKLCHPERLVLLGHSLGIPWAPLSSCPSQALQLAGCLSQLHSGLFLYQGLLQALEGISPELGPTLDTLQKDVARFATTIWQQMRRLGMAPALQPTQGAMPAFASAFQRRAGGVLVASHLQSFLEVSYRVLRHLAQAAAENLYFQ | 465 | – | KD fold change (vs WT:WT) [5]: 1 fold; fold weaker affinity (vs WT:WT) [3]: ~500 fold
G-CSFR(Ig-CRH)E design 307, purified, tag cleaved (receptor, SPR protein; also called Design 307 G-CSFR(Ig-CRH)E) GSMGCGHISVSAPIVHLGDPITASCIIKQNCSHLDPEPQILWELGAELQPGGRQQRLSDGTQESIITLPHLNHTQAFLSCSLNWGNSLQILDQVELRAGYPPAIPHNLSCLMNLTTSSLICQWEPGPETHLPTSFTLKSFKSRGNCQTQGDSILDCVPKDGQSHCSIPRKHLLLYQNMGIWVQAENALGTSMSPQLCLKPMKVVKLEPPMLRTMDPSPEAAPPQAGCLQLSWEPWQPGLHINQKCELRHKPQRGEASWALVGPLPLEALQYELCGLLPATAYTLQIRCIEWPLPGHWSDWSPSLELRTTE | – | no binding | –
G-CSFR(Ig-CRH)E design 401, purified, tag cleaved (receptor, SPR protein; also called Design 401 G-CSFR(Ig-CRH)E) GSMGCGHISVSAPIVHLGDPITASCIIKQNCSHLDPEPQILWELGAELQPGGRQQRLSDGTQESIITLPHLNHTQAFLSCSLNWGNSLQILDQVELRAGYPPAIPHNLSCLMNLTTSSLICQWEPGPETHLPTSFTLKSFKSRGNCQTQGDSILDCVPKDGQSHCSIPDKHLLLYQNMGIWVQAENALGTSMSPQLCLDPMDVVKLEPPMLRTMDPSPEAAPPQAGCLQLSWEPWQPGLHINQKCELRHKPQRGEASWALVGPLPLEALQYELCGLLPATAYTLQIRCIDWPLPGHWSDWSPSLELRTTE | – | no binding | –
G-CSFE design 30, purified, tag cleaved (ligand, also called Design 30 G-CSFE) TPLGPASSLPQSFLLKCLEQVRKIQGDGAALQEKLCATYKLCHPEELVLLGHSLGIPWAPLSSCPSQALQLAGCLSQLHSGLFLYQGLLQALEGISPELGPTLDTLQKDVARFATTIWQQMEELGMAPALQPTQGAMPAFASAFQRRAGGVLVASHLQSFLEVSYRVLRHLAQAAAENLYFQ | 20 | – | KD fold change (vs WT:WT) [6]: 11 fold; fold weaker KD (vs WT:WT) [3]: ≥ 20 fold
G-CSFR(Ig-CRH)E design 303, purified, tag cleaved (receptor, SPR protein; also called Design 303 G-CSFR(Ig-CRH)E) GSMGCGHISVSAPIVHLGDPITASCIIKQNCSHLDPEPQILWRLGAELQPGGRQQRLSDGTQESIITLPHLNHTQAFLSCSLNWGNSLQILDQVKLRAGYPPAIPHNLSCLMNLTTSSLICQWEPGPETHLPTSFTLKSFKSRGNCQTQGDSILDCVPKDGQSHCSIPDKHLLLYQNMGIWVQAENALGTSMSPQLCLDPMDVVKLEPPMLRTMDPSPEAAPPQAGCLQLSWEPWQPGLHINQKCELRHKPQRGEASWALVGPLPLEALQYELCGLLPATAYTLQIRCIRWPLPGHWSDWSPSLELRTTE | – | no binding | –
G-CSFE design 117, purified, tag cleaved (ligand, also called Design 117 G-CSFE) TPLGPASSLPQSFLLKCLEQVRKIQGDGAALQEKLCATYKLCHPERLVLLGHSLGIPWAPLSSCPSQALQLAGCLSQLHSGLFLYQGLLQALEGISPELGPTLDTLQLDVADFATTIWQQMRRLGMAPALQPTQGAMPAFASAFQRRAGGVLVASHLQSFLEVSYRVLRHLAQAAAENLYFQ | 3.4 | – | –
G-CSFR(Ig-CRH)E design 130, purified, tag cleaved (receptor, SPR protein; also called Design 130 G-CSFR(Ig-CRH)E) GSMGCGHISVSAPIVHLGDPITASCIIKQNCSHLDPEPQILWELGAELQPGGRQQRLSDGTQESIITLPHLNHTQAFLSCSLNWGNSLQILDQVELRAGYPPAIPHNLSCLMNLTTSSLICQWEPGPETHLPTSFTLKSFKSRGNCQTQGDSILDCVPKDGQSHCSIPDKHLLLYQNMGIWVQAENALGTSMSPQLCLDPMDVVKLEPPMLRTMDPSPEAAPPQAGCLQLSWEPWQPGLHINQKCELRHKPQRGEASWALVGPLPLEALQYELCGLLPATAYTLQIRCIRWPLPGHWSDWSPSLELRTTE | – | no binding | –
G-CSFR(Ig-CRH)E design 304, purified, tag cleaved (receptor, SPR protein; also called Design 304 G-CSFR(Ig-CRH)E) GSMGCGHISVSAPIVHLGDPITASCIIKQNCSHLDPEPQILWELGAELQPGGRQQRLSDGTQESIITLPHLNHTQAFLSCSLNWGNSLQILDQVKLRAGYPPAIPHNLSCLMNLTTSSLICQWEPGPETHLPTSFTLKSFKSRGNCQTQGDSILDCVPKDGQSHCSIPDKHLLLYQNMGIWVQAENALGTSMSPQLCLDPMDVVKLEPPMLRTMDPSPEAAPPQAGCLQLSWEPWQPGLHINQKCELRHKPQRGEASWALVGPLPLEALQYELCGLLPATAYTLQIRCIRWPLPGHWSDWSPSLELRTTE | – | no binding | –
G-CSFR(Ig-CRH)E design 402, purified, tag cleaved (receptor, SPR protein; also called Design 402 G-CSFR(Ig-CRH)E) GSMGCGHISVSAPIVHLGDPITASCIIKQNCSHLDPEPQILWELGAELQPGGRQQRLSDGTQESIITLPHLNHTQAFLSCSLNWGNSLQILDQVELRAGYPPAIPHNLSCLMNLTTSSLICQWEPGPETHLPTSFTLKSFKSRGNCQTQGDSILDCVPKDGQSHCSIPEKHLLLYENMGIWVQAENALGTSMSPQLCLDPMDVVKLEPPMLRTMDPSPEAAPPQAGCLQLSWEPWQPGLHINQKCELRHKPQRGEASWALVGPLPLEALQYELCGLLPATAYTLQIRCIEWPLPGHWSDWSPSLELRTTE | – | no binding | –
B1 | – | no binding | –

Source: US20240115603A1 (Zymeworks, published 2024)
